Measurements taken from patent publication US20110039729A1.

Assays:
[1] = molecular target: soybean agglutinin (SBA), GalNAc-specific lectin (soybean) (UniProt P05046); test: single SBA panning step, 8×10^6 cfu glycophage alone
[2] = molecular target: soybean agglutinin (SBA), GalNAc-specific lectin (soybean) (UniProt P05046); test: single SBA panning step, 8×10^6 cfu glycophage mixed with an equal amount of aglycosylated phage
[3] = molecular target: soybean agglutinin (SBA), GalNAc-specific lectin (soybean) (UniProt P05046)
[4] = molecular target: soybean agglutinin (SBA), GalNAc-specific lectin (soybean) (UniProt P05046); test: single SBA panning step, glycophage with 10^4-fold excess of aglycosylated phage
[5] = molecular target: soybean agglutinin (SBA), GalNAc-specific lectin (soybean) (UniProt P05046); test: single SBA panning step, glycophage with 10^2-fold excess of aglycosylated phage
[6] = molecular target: soybean agglutinin (SBA), GalNAc-specific lectin (soybean) (UniProt P05046); test: single SBA panning step, 8×10^10 aglycosylated phage applied

Sequence of UniProt P05046 (P05046 33-285 limits assumed): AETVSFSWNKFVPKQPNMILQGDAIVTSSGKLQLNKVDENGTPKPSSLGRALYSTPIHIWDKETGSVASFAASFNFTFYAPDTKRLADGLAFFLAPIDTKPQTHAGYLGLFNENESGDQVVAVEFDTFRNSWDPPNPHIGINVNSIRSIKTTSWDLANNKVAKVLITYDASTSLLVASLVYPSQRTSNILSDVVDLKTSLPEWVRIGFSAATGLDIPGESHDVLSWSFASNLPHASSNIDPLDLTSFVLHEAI

Substance	percent of phages recovered [1] [%]	phages recovered [1] [cfu]	percent of phage bound by SBA [2] [%]	phage bound by SBA [2] [cfu]	fold increase in phage titer in the eluate [3] [fold]	phage titer in the eluate [3] [cfu/ml]	percent of phage bound by SBA [4] [%]	phage bound by SBA [4] [cfu]	percent of phage bound by SBA [5] [%]	phage bound by SBA [5] [cfu]	infectious particles bound to SBA [6] [cfu]
glycosylated AcrA-g3p fusion protein from TG1 pgl+ cells (in lysates and displayed on phage) (from UniProt P69168 19-424)	96	7.7e+06	96	7.8e+06	1000	1e+06	79	6.3e+06	93	7.4e+06	–
non-glycosylated AcrA-g3p fusion protein from TG1 pglmut cells (in lysates and displayed on phage) (from UniProt P69168 19-424)	–	–	–	–	–	1000	–	–	–	–	38000
